These results are taken from paper PMC4967961.

The target of data set [1] is T1, HuRΔIII (ΔRRMIII) (UniProt Q15717 1-243). Briefly: displacement from Ago2 miRNPs, HuR IP and qRT-PCR; 300 nM protein, 5 mM Mg2+, 30 C, 60 min; EMSA: 20 mM Tris-HCl pH 7.8, 150 mM KCl, 2 mM MgCl2, 0.1% Triton X-100, 0.5 mM DTT, heparin 5 mg/ml, BSA 1 mg/ml, 10% glycerol, on ice 15 min; 6% native PAGE, 0.
For data set [2], the target named is T1, HuRΔIII (ΔRRMIII). Briefly: EMSA; EMSA: 20 mM Tris-HCl pH 7.8, 150 mM KCl, 2 mM MgCl2, 0.1% Triton X-100, 0.5 mM DTT, heparin 5 mg/ml, BSA 1 mg/ml, 10% glycerol, on ice 15 min; 6% native PAGE, 0.

T1 sequence (Q15717 1-243, stated change not applied): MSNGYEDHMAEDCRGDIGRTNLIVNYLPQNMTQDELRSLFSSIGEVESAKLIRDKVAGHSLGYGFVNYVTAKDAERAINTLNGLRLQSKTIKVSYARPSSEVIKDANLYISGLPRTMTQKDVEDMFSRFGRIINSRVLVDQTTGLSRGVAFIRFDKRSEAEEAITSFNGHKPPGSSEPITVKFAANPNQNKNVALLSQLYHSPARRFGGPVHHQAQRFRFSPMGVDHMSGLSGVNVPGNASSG

B1: miR-122 from cell-expressed Ago2 miRNPs (ssRNA)
RNA: UGGAGUGUGACAAUGGUGUUUG
Regarding B1, the binding signal with HuRΔIII (ΔRRMIII) [1] is ~14 fold reduction vs full-length HuR.

B2: TNF-alpha 3'UTR ARE RNA (ssRNA)
RNA: AUUAUUUAUUAUUUAUUUAUUAUUUAUUUAUUUA
For the molecule B2, the binding result with HuRΔIII (ΔRRMIII) [2] was “binds”.
